Experimental data reported in the DeepSol protein solubility set.

Experiment: soluble on expression in E. coli; label from the status in PepcDB or PDB records

Sequence	soluble on expression in E. coli
MNACVSVVCYKSKTLSNGENPLMLQVSKGGKRKYQSLGISINPKYWDFTRNKPKPNCPNKEYIQKIILDKQRELQQRMLELNSEQKEYTTTTLLNNENTKFELKTVSMFYKELIEQYTREDKCGNRLIYKGSFNSLKVFTNGKLDIPFNEIDIAWLNKYEKWLRSKGNRETTISLLFRTLRSAYNKAIKAKCARKSDYPFDDYKINKFDTTTQKRAIAKTDVLKFTTEVQPIGKQQYMELSKDIFVFSYLCGGINFTDIANLTNENIQNGRLHYIRQKTKKPIKIGIPQEAMQIIEKYSKESKG	not soluble
MNATINDDDIDDVKKALDHATQAAHKAAAELTAKLRSDFVEYGNGGTAGQVLIHIYGPGLIYGFSAFPVQIRLEIPNQPVPFNKVHITEVTAYVIDENNRTYWTRVWNSSTFRQGGYIADTLDLVTVMKAPDPLVYQIRDAIVTGQISRELYDKIWNTSTTHFEIRVIVKGYQEAWKTDSSVSNQSSCPSDGHWYEDACWVHDKDIDFTLKAETTTAWGHVTGTNDVATIDGGMLGSLPIKFLQSLDLSGKWVLYQNKYAGALSDFIIITAASPVHVLNSTAMYKFLITPNPGYFQPANPKISDEYRFVTLRVIEGGRMELADTTTGHIGDLTEPTFFGLTAHYTDAPGTLDYHALGLVYAYVERDDGVKIPIWLAAEPMISVLSNTYTVMKDQDVKNLIDLYKKKDREKINATTKAMINSLQEKIDEAEQLLAKAKGMNNENAIEYAQGAIDEYKAAINDLQKAAQQDDYQMFLNYLNAAKKHEMAGDYYVNAARKALNGDLEQAKIDAEKAKEYSNLAKEYEPG	soluble
MNATPEKADDLIVVGKIFSVHGVRGEVKVYSFTDPIENLLDYPRWTLRHEGKVKQVELVSGRGSQKGLVVKLKGLDDRDEARLLSGYEICIPRSLLPNLAADEYYWYQLVGLKVINQDEQLFGKVDHLLETGANDVMVVKPCAGSLDDRERLLPYTEQCVLAIDLEAGVMRVEWDADFLEHHHHHH	soluble
MNAVHFGAGNIGRGFIGEILAKNGFHITFVDVNETIIQALKERKSYTIELADASHQQINVENVTGLNNMTEPEKVVEAIAEADLVTTAIGPNILPRIAELIAQGIDARAEANCQKPLDIIACENMIGGSTFLAEEVAKYLKNPAYAEQWIGFPDAAVDRIVPLQKHEDPLFVQVEPFCEWVIDDTNRKAKEIQLEGVHYVAD	not soluble
MNDDLIMRKKPEQIEMEFQDSGESALVKSTLLSSLQNSEWEIAVRKEVKKFLEKARDDVSAKEVFDAVKDMARREIPQEAKKKLYDQVLEFVTTTNKK	not soluble
MNDELKNKSGKVKVMYVRSDDDSDKRTHNPRTGKGGGRPAKSRTDGGRRPARDERNNQSRDRKHETSPWRTVSRAPGDETPEKVDHGGISGKSFIDPEVLRRQRAEETRVYGENACQALFQSRPDAIVRAWFIQSVTPRFKEALRWMAANRKAYHVVDEAELAKASGTEHHGGVCFLIKKRNGTTVKQWVKQAADQDCVLALEDVANPHNLGGMMRSCAHFGVKGVVVQDAALLESGAAIRTAEGGAEHVQPITGESIVDVLDDFRQAGYTVVTTSSDRGQALFSTTLPEKMVLVLGREYDYLPEAAREPDDLCVKINGTGNVESLNVSVATGVLLAEWWRQNKA	not soluble
MNDIWWQTYGEGNCHLVLLHGWGLNAEVWHCIREELGSHFTLHLVDLPGYGRSSGFGAMTLEEMTAQVAKNAPDQAIWLGWSLGGLVASQMALTHPERVQALVTVASSPCFSAREGWPGIKPEILGGFQQQLSDDFQRTVERFLALQTLGTETARQDARTLKSVVLAQPMPDVEVLNGGLEILKTVDLREALKNVNMPFLRLYGYLDGLVPRKIVPLLDTLWPHSTSQIMAKAAHAPFISHPAAFCQALMTLKSSL	not soluble
MNDKEKIYNQLHHDAPIQIMPAPENLFVEYIEDGEVWYSPVVCIALSKAHNINFYDSDDVGCIDKAATCSIKKFNPETGEFEQFSKMAQKEITQ	not soluble
MNDRLCFEVHDNKGYFVFPDTWFGPLLGEFEEVLDAYDADEISETSYINKLRRLAQREPDFIDIHAHLAYAFLEQNAPRKALNAALKGLAAGNRIIPESFCGEIIWMHPENRPYLRALYAAILANVHLQRHQDAVMLTDKILAYNPEDNQGARWLLGSELLRTGDHERAFSVLKEHADEFSPYWYELGLLHFLNGEHVKAATAFRHGFATNTYIAEMLCGNLHPFPLAVWHDFSGSLDTAEDYYATYSPLWGQYPEALLFVNWLYNHSSVLHERSEIIKCAEMLIQEDDFEICESILRQQEHLWKRIDKTLSEEIVQKCRNMNGEYIWPWILPFSAAGMKHSSIQYQMAGDPLEHHHHHH	soluble
MNDSTCPRPCLMKLDLQSSTNKLAFLKDNWPSFGQIESIDRLSETELRCTLCLLDVVLAALAKDECFCPNREIIRLVLTRTYVQNRCELCETEEIRSKLMKGFCTWEKKNGLSRKNEIRRRGISVFYGAILRMLSKVNGKQE	not soluble
MNFLSQRYTGKSLHPDETKCYKNFTQTAQKLTHRLAESINHYVNHIDCVINTNLYNRLLAEKKESNHMIYKERETWLEAILNTLPDHVFILDESGRYIESFGGTHHSKTFNAERYIGLQLSDVLSPTKADELMGFIFDVMQDNETKVVKYNLSLHDHLLLPIEELEALENPEEMWFEAIIKPVNAPENANKLVIWSVRDITKTHLLEQRLK	not soluble
MNFRLSEEHEMLRKMVREFAENEVAPTAAERDEEERFDRGIFNKMAELGLTGIPWPEEYGGIGSDYLAYVIAVEELSRVCASTGVTLSAHISLASWPIYKFGNEEQKQKYLRALATGEKLGAYALSEPGAGSDVASMKTRAVKDGDHYILNGSKVWITNGGEAEIYVVFAVTDPEKRHKGISAFIVEKGTPGFSFGKKEKKLGIRSSPTTELIFEDCRIPKENLLGQEGEGFKIAMMTLDGGRNGIAAQAVGIAQGALDAAVDYAKQRVQFGKPIIEQQGVAFKLADMATAIEAARLLTYQAAWLESNGLPYGKASAMAKLFAGDTAMKVTVEAVQIFGGNGYTKDYPVERFMRDAKITQIYEGTQEIQRLVISRMLTRN	soluble
MNGIKTGLGITPGEHIISADSALSRNIRQCFCLSCHGRLILQTDAQGAWFEHDLYALSEQQKAACVVLNPEKSHPYIEDMEMFLSPLPVVLEWHCMMCEQFFHGKKFCEACGTGIYCRAVCTKSVYSYQPDLFQDCGGAST	soluble
MNGNGENGTDEKQKLLSVVGVVSEEVVEMNRVSSARFQVSKTDEDEKTSDDNLRKLKSGSEPPPPTQNHEAVTLVTRKMSATGRFMVTSDTNPGQLVAEVADELGIDVPIDPPAEKSPASRAKGVHFSVGDKDSGSMSEDGDEKRNITHENQTTFNMKSWRNMKTIEHPPIIDFYRNSIDTDGVFNRPSMAQLIHGKEHKEQDLGFEELNKKPETAQLAKVIGLNLLSKEDQERRDFERKKRINQQKLQEMHKMHKETYNFR	not soluble
MNGYVYLVGAGPGDEGLITKKAIECLKRADIVLYDRLLNPFFLSYTKQTCELMYCGKMPKNHIMRQEMINAHLLQFAQEGKIVVRLKGGDPSIFGRVGEEAETLAAANIPYEIVPGITSSTAASSYAGIPLTHRNYSNSVTLLTGHAKGSLTDHGKYNSSHNSDTIAYYMGIKNLPTICKNLRQAGKKEDTPVAVIEWGTTGKQRVVTGTLSTIVSIVKNENISNPSMTIVGDVVSLRDQIAWKEHKPLHGKKVLFTSATNKTSVMKQKLQEAGAEIYQIPTFKKEEYTLTLEQIIEIFNVNRLVFCSAESVEILMQSCSKYKKDIRSLQAELQHMNVATQEKLMQYGLLSKEAKFSSDTTVYLGRNINRIAFIQEKIGAGSYMMTHKYTIDHRFDEVHSRMLSEFLWDSIVFEGRASIDTFLAEVKRLGFLDIVTLPFSYTDVPTLRYANKVGFHNIDHQLQETLMQKDMVRQ	not soluble
MNHAQSLYPLIERALLCPVLEDKLALAERLHRDWRAGMLARLASPAPYPLPEPGRPERPELVHPARVPKRSLSTRRGHGALLHAIAHIEFNAVNLALDAAWRFRDMPDEFVDDWLKVAAEEAGHFRLLQGRLAELGFSYGDFPAHDGLWAMCRKTDRDAMVRMALVPRVLEARGLDVTPGIQRRLAGIGDHASVAVLDVILRDEVGHVLIGNRWFVRLCRERGLEPQATFRGLLEQHAMQLHPGDYNLDARAAAGFFADELEALARLTESVSDGRLEHHHHHH	soluble
MNIAVASGKGGTGKTTVAVNLAASYAMQGLPVTLVDCDVEEPNAHLFVDARWQVRSLCGVPVPAIDPDRCLGESCRRCVEACRFKALAMLGGELLVFAELCHGCGLCELVCPAGVVGTASRPVGEVRQGVASCHVHGETCHMAFRDGVLRVGEAMATPLIKAVKRTAEDANATSHAGYGVTLWDCPPGTACATINALDEADFVVLVAESTAFGLHDLRLAVGLVCHLGLPHGIVINRFGMGDDRVATWAASEGIDVLGRLPFSLEAASRNAGGGLLLDASHDLEAAYRDLGARLLEKGIRSLEHHHHHH	not soluble
MNIFNPNHDRKAIVIFSGGQDSTTCLFQAIAEYGKENIEAITFQYGQRHAIELEKARTIAQDLGIKQTLIDTSVMKAITHNALMDEQAHIEQKENELPNTFVDGRNALFLLYAAIYAKGQGIQDIITGVCETDFSGYPDCRDVFIKSMNVTLNLAMDYPIPISKTPLMYLTKAQTWQLADEFRRIRLCTKTYSHLL	not soluble
MNILLAGGSGLIGQELVRGMGEEHHYTVLGRDKDAIQKIFTTKASSLSWDELNTQDASRFDAVINLCGVNIAISRWTPKIKEEIISSRVQTTENLLHWILQQNAKPRFYCANAVGIYGLQENGDATDLTEDTAINWEHPKDYLSEVGIRWQQALQKAEEAGLPVTSTRFGVVLKKGKGFLGKLYPSFICGLGSTIGDGRQYLSWIDSEDLVNAYRFLLNHPEITGPVNVTSPNPCMQREFAKAFAKSLHRPLLLWTPAFIIHLLFGEMGDCLINHGQKVKPKRLLEAGFEFKWPDIEKALKHQYSAILEHHHHHH	soluble
MNILLTSATGYLGRAIAAAIQSKGHRVTALARSAATAQRLEAAGIQPCRGDLTDAVALQQAAAQADAVIHTAATNDAAMGLVDRQAVKTLLAAIAGTQKPFLYTSGLWVMGNTGATVADETFPLNPPALVAWRPAVEALVLSAADQGVRSIVIRPALVYGRGGGLLPMLMQAGQSQGAVPVIGAGDNAWSFIHIDDLAALYVAAIEQAPARTLLIGASGESVSMQQVALTIAKTLGLGDRLQHLTLEEARAIWGDLADALTLDQRVSGDRARQLLHWQPVAPGVFQELTQGSYATKAIAALEHHHHHH	not soluble
MNILRNIILFGWMAIACTAFAQDRNADKVERPNTKKINFGIKAGFNSSMFMVSELKIKDVTIDEVQNNYKIGYFGAIFMRFNIKKHFIQPEASYNVSKGEITFDKLGSQHPAIEPDYASVQSVLHSIDFPILYGYNVVKKGPYGMSIFAGPKLRYLWGKQNEITFTNFDQKGIHEKLYPLNVSVVIGVGVNISRIFFDFRYEQGIGNISKSIVYDNINSDGSTGVSPIIFRRRDSALSFSFGFIL	not soluble
MNIQCKRVYDPAEQSDGYRILVDRLWPRGIKKTDLALDEWDKEITPSTELRKAFHGEVVDYATFREQYLAELAQHEQEGKRLADIAKKQPLTLLYSAKNTTQNHALVLADWLRSL	soluble
